Results from US20240294646A1.
Blank lines part the entries; values can stand above or below the substance they belong to.

What was measured:
FcγRIIaR [1] = biological target: FcγRIIaR (UniProt P12318); assay: SPR (Protocol 2, Biacore 4000), antibody captured on immobilised HER2, FcγR as analyte
[2] = biological target: Soluble FcγRIIb extracellular domain with C-terminal 10×His tag (UniProt P31994); assay: SPR; IIb-Fold / IIaR-Fold (FcγRIIb against FcγRIIaR)
[3] = biological target: Soluble FcγRIIb extracellular domain with C-terminal 10×His tag (UniProt P31994); assay: SPR; KD of WT v16463 / KD of variant
[4] = biological target: Soluble FcγRIIaR extracellular domain with C-terminal 10×His tag (UniProt P12318); assay: SPR; KD of WT v16463 / KD of variant
[5] = biological target: Soluble FcγRIIb extracellular domain with C-terminal 10×His tag (UniProt P31994); assay: SPR (Biacore 4000), antibody captured on immobilised HER2, receptor as analyte
[6] = biological target: Soluble FcγRIIaR extracellular domain with C-terminal 10×His tag (UniProt P12318); assay: as above
[7] = biological target: Soluble FcγRIIb extracellular domain with C-terminal 10×His tag (UniProt P31994); assay: SPR; ratio of IIb-Fold to IIaR-Fold (FcγRIIb against FcγRIIaR)
[8] = biological target: Soluble FcγRIIb extracellular domain with C-terminal 10×His tag (UniProt P31994); assay: SPR; KD ratio against wild-type v16463
[9] = biological target: Soluble FcγRIIaR extracellular domain with C-terminal 10×His tag (UniProt P12318); assay: SPR; KD ratio against wild-type v16463
[10] = biological target: Soluble FcγRIIb extracellular domain with C-terminal 10×His tag (UniProt P31994); assay: SPR, antibody captured on HER2 chip, receptor as analyte
[11] = biological target: Soluble FcγRIIaR extracellular domain with C-terminal 10×His tag (UniProt P12318); assay: as above
[12] = biological target: Soluble FcγRIIb extracellular domain with C-terminal 10×His tag (UniProt P31994); assay: SPR (Protocol 2): full-size antibody captured on immobilised HER2, soluble receptor as analyte; fold over wild-type
[13] = biological target: Soluble FcγRIIaR extracellular domain with C-terminal 10×His tag (UniProt P12318); assay: as above
[14] = biological target: Soluble FcγRIIb extracellular domain with C-terminal 10×His tag (UniProt P31994); assay: SPR (Protocol 2); ratio of FcγRIIb fold to FcγRIIaR fold over wild-type
[15] = biological target: Soluble FcγRIIb extracellular domain with C-terminal 10xHis tag (UniProt P31994); assay: SPR Protocol 2; ratio IIb-Fold/IIaR-Fold (FcγRIIb against FcγRIIaR)
[16] = biological target: Soluble FcγRIIb extracellular domain with C-terminal 10xHis tag (UniProt P31994); assay: SPR Protocol 2; IIb selectivity relative to control v27294
[17] = biological target: Soluble FcγRIIb extracellular domain with C-terminal 10xHis tag (UniProt P31994); assay: SPR Protocol 2, OAA captured on HER2 chip, receptor as analyte; KD(WT v16463)/KD(variant)
[18] = biological target: Soluble FcγRIIaR extracellular domain with C-terminal 10xHis tag (UniProt P12318); assay: as above
[19] = biological target: Soluble FcγRIIb extracellular domain with C-terminal 10xHis tag (UniProt P31994); assay: SPR Protocol 2; IIb-Fold relative to control v27294
[20] = biological target: Soluble FcγRIIb extracellular domain with C-terminal 10xHis tag (UniProt P31994); assay: SPR, antibody captured on HER2, receptor as analyte
[21] = biological target: Soluble FcγRIIaR extracellular domain with C-terminal 10xHis tag (UniProt P12318); assay: as above
[22] = biological target: Biotinylated FcγRIIb extracellular domain-Fc fusion (human IgG1 Fc L234A_L235A_D265S) (human) (UniProt P31994); assay: competition electrochemiluminescence (MSD), antibody on HER2-coated plate, biotinylated FcγRIIb-Fc; competitor FcγRIIaR-Fc
[23] = biological target: Soluble FcγRIIb extracellular domain with C-terminal 10xHis tag (UniProt P31994); assay: SPR; ratio of the fold for FcγRIIb to the fold for FcγRIIaR
FcγRIIIaV = FcγRIIIaV (UniProt P08637); assay: SPR (ProteOn XPR36), antibody captured on immobilized HER2, FcγR as analyte, equilibrium fit
FcγRI = FcγRI (UniProt P12314); assay: as above
FcγRIIaR [24] = biological target: FcγRIIaR (UniProt P12318); assay: as above
FcγRIIb [25] = biological target: FcγRIIb (UniProt P31994); assay: as above
FcγRIIaH = FcγRIIaH (UniProt P12318); assay: as above
FcγRIIaR [26] = biological target: FcγRIIaR (UniProt P12318); assay: SPR; trastuzumab FSA variant against soluble FcγRIIaR; KD ratio to wild-type FSA v21653
[27] = biological target: Recombinant human C1q (C1740, Sigma Aldrich) (human) (UniProt P02745); assay: ELISA; antibody coated on plate, human C1q added; signal as % of wild-type
FcγRIIb [28] = biological target: FcγRIIb (UniProt P31994); assay: SPR; trastuzumab FSA variant against soluble FcγRIIb; KD ratio to wild-type FSA v21653
FcγRIIb [29] = biological target: FcγRIIb (UniProt P31994); assay: SPR; ratio of IIb-fold to IIaR-fold, FcγRIIaR as comparison receptor
[30] = biological target: Soluble FcγRIIb extracellular domain with C-terminal 10xHis tag (UniProt P31994); assay: SPR, antibody captured on immobilised HER2, soluble receptor as analyte
[31] = biological target: Soluble FcγRIIaR extracellular domain with C-terminal 10xHis tag (UniProt P12318); assay: as above
[32] = biological target: Biotinylated FcγRIIb extracellular domain-Fc fusion (human IgG1 Fc with L234A_L235A_D265S) (human) (UniProt P31994); assay: competition electrochemiluminescence, antibody on HER2-coated plate, biotinylated FcγRIIb-Fc; competitor FcγRIIaR-Fc at 10x
[33] = biological target: Soluble FcγRIIb extracellular domain with C-terminal 10xHis tag (UniProt P31994); assay: SPR; IIb-Fold / IIaR-Fold
[34] = biological target: Soluble FcγRIIb extracellular domain with C-terminal 10xHis tag (UniProt P31994); assay: SPR; fold change in affinity over WT v16463
[35] = biological target: Soluble FcγRIIaR extracellular domain with C-terminal 10xHis tag (UniProt P12318); assay: SPR; fold change in affinity over WT v16463
[36] = biological target: Soluble FcγRIIb extracellular domain with C-terminal 10xHis tag (UniProt P31994); assay: SPR (Biacore 4000), antibody captured on immobilised HER2, receptor as analyte

- IIb-fold (fold change in affinity over wild-type) [12]: 23.9 fold
- IIaR-fold (fold change in affinity over wild-type) [13]: 1.6 fold
- IIb/IIaR Selectivity (IIb-Fold/IIaR-Fold) [14]: 15.2
Substance: Variant 22127, full-size antibody (FSA) format of v19540 (trastuzumab, heterodimeric IgG1 Fc; A: L234D_G236N_S267A / B: G236D_S239D_V266L_S267A_H268D)

- IIb-fold (fold change in affinity over wild-type) [12]: 37.4 fold
- IIaR-fold (fold change in affinity over wild-type) [13]: 3.3 fold
- IIb/IIaR Selectivity (IIb-Fold/IIaR-Fold) [14]: 11.3
Substance: Variant 22128, full-size antibody (FSA) format of v19585 (trastuzumab, heterodimeric IgG1 Fc; A: L234F_G236N_H268Q_K274Q_A327G_A330K_P331S / B: L234F_G236D_S239D_V266L_S267A_H268D_K274Q_A327G_A330S_P331S)

- Kd (FcγRIIIaV): 1600 nM
- Kd (FcγRI): 0.071 nM
- Kd (FcγRIIaR [24]): 2090 nM
- Kd (FcγRIIb [25]): 6340 nM
- Kd (FcγRIIaH): 1530 nM
Substance: Variant 31522 (trastuzumab full-size antibody, electrostatic steering heterodimeric IgG1 Fc, no CH2 mutations; parental scaffold)

- IIaR-fold (fold change in affinity over wild-type) (FcγRIIaR [26]): 6 fold
- C1q Binding (% WT) [27]: 2 % WT
- IIb-fold (fold change in affinity over wild-type) (FcγRIIb [28]): 323 fold
- IIb Selectivity (IIb-Fold/IIaR-Fold) (FcγRIIb [29]): 58 fold
Substance: Variant 32293, trastuzumab full-size antibody (chain A S267A_strat2; chain B D329*I_I332L-strat1)

- Kd [30]: 13 nM
- Kd [31]: 220 nM
- ELISA (% of non-competed FcγRIIb signal in presence of 10x FcγRIIa) [32]: 100%
- IIb Selectivity [33]: 80.5
- IIb-Fold [34]: 112 fold
- IIaR-fold [35]: 1.4 fold
Substance: v12, IIb-specific comparator with symmetrical E233D_G237D_P238D_H268D_P271G_A330R (Mimoto et al. 2013) (antibody)

Continued, substance first:

Substance: Variant 16463, wild-type one-armed antibody (Scaffold 2: one trastuzumab Fab and heterodimeric IgG1 Fc)
- Kd (FcγRIIaR [1]): 360 nM

Substance: Variant 16463, wild-type one-armed trastuzumab antibody with heterodimeric IgG1 Fc
- IIb Selectivity [2]: 1 fold
- IIb-Fold [3]: 1 fold
- IIaR-fold [4]: 1 fold
- Kd [5]: 1400 nM
- Kd [6]: 310 nM

Substance: Variant 16463, wild-type one-armed trastuzumab antibody with heterodimeric IgG1 Fc (Scaffold 2)
- IIb Selectivity (IIb-Fold/IIaR-Fold) [7]: 1 fold
- IIb-Fold [8]: 1 fold
- IIaR-fold [9]: 1 fold
- Kd [10]: 1400 nM
- Kd [11]: 310 nM

Substance: Variant 26747 (A_E272V_strat2), one-armed trastuzumab antibody with heterodimeric IgG1 Fc
- IIb Selectivity (IIb-Fold/IIaR-Fold) [15]: 14.9 fold
- IIb Selectivity Improvement wrt Control [16]: 1.1 fold
- IIb-fold (fold change in affinity over wild-type) [17]: 89.7 fold
- IIaR-fold (fold change in affinity over wild-type) [18]: 6 fold
- IIb-Fold wrt Control [19]: 1 fold

Substance: Variant 26751 (A_E272W_strat2), one-armed trastuzumab antibody with heterodimeric IgG1 Fc
- IIb Selectivity (IIb-Fold/IIaR-Fold) [15]: 11.2 fold
- IIb Selectivity Improvement wrt Control [16]: 0.8 fold
- IIb-fold (fold change in affinity over wild-type) [17]: 60.1 fold
- IIaR-fold (fold change in affinity over wild-type) [18]: 5.4 fold
- IIb-Fold wrt Control [19]: 0.6 fold

Substance: Variant 26752 (A_E272Y_strat2), one-armed trastuzumab antibody with heterodimeric IgG1 Fc
- IIb Selectivity (IIb-Fold/IIaR-Fold) [15]: 17.5 fold
- IIb Selectivity Improvement wrt Control [16]: 1.3 fold
- IIb-fold (fold change in affinity over wild-type) [17]: 79.8 fold
- IIaR-fold (fold change in affinity over wild-type) [18]: 4.6 fold
- IIb-Fold wrt Control [19]: 0.9 fold

Substance: Variant 27293 (strat1_control; Launching Module 1: A_G236N_G237A B_G236D_G237F_S239D_S267V_H268D_Template_1) (antibody)
- IIb-Fold (affinity fold over WT v16463) [20]: 415 fold
- IIb-Fold wrt Control (v27293) [20]: 1 fold
- Kd [20]: 3.5 nM
- IIaR-Fold (affinity fold over WT v16463) [21]: 35.2 fold
- IIaR-Fold wrt Control (v27293) [21]: 1 fold
- Kd [21]: 8.8 nM
- ELISA (% of non-competed FcγRIIb signal in presence of 10x FcγRIIa) [22]: 70.8%
- IIb Selectivity (IIb-Fold/IIaR-Fold) [23]: 11.8
- IIb Selectivity Fold wrt Control (v27293) [23]: 1 fold

Substance: Variant 31509 (trastuzumab full-size antibody, Azymetric heterodimeric IgG1 Fc, no CH2 mutations; parental scaffold)
- Kd (FcγRIIIaV): 1190 nM
- Kd (FcγRI): 0.067 nM
- Kd (FcγRIIaR [24]): 1520 nM
- Kd (FcγRIIb [25]): 4200 nM
- Kd (FcγRIIaH): 1150 nM

Substance: Variant 32292, trastuzumab full-size antibody (chain A L235D_strat2; chain B D329*I_I332L-strat1)
- IIaR-fold (fold change in affinity over wild-type) (FcγRIIaR [26]): 6 fold
- C1q Binding (% WT) [27]: 2 % WT
- IIb-fold (fold change in affinity over wild-type) (FcγRIIb [28]): 451 fold
- IIb Selectivity (IIb-Fold/IIaR-Fold) (FcγRIIb [29]): 78 fold

Substance: Variant 32295, trastuzumab full-size antibody (chain A P329I_strat2; chain B D329*I_I332L-strat1)
- IIaR-fold (fold change in affinity over wild-type) (FcγRIIaR [26]): 1 fold
- C1q Binding (% WT) [27]: -1 % WT
- IIb-fold (fold change in affinity over wild-type) (FcγRIIb [28]): 103 fold
- IIb Selectivity (IIb-Fold/IIaR-Fold) (FcγRIIb [29]): 82 fold

Substance: v12 (IIb-specific comparator, symmetrical E233D_G237D_P238D_H268D_P271G_A330R) (antibody)
- IIb-Fold (affinity fold over WT v16463) [20]: 112 fold
- Kd [20]: 13 nM
- IIaR-Fold (affinity fold over WT v16463) [21]: 1.4 fold
- Kd [21]: 220 nM
- ELISA (% of non-competed FcγRIIb signal in presence of 10x FcγRIIa) [22]: 100%
- IIb Selectivity (IIb-Fold/IIaR-Fold) [23]: 80.5

Substance: v27362, strat3_control (A_G236N_G237A B_G236D_G237F_S239D_S267V_H268D) (antibody)
- Kd [36]: 150 nM
